Reference: the nanobody polyreactivity screen of Harvey et al. (2022)

Assay: yeast display, Sf9 membrane polyspecificity reagent, FACS + sequencing; frameworks hold sequencing errors
Outline: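 After 36–48 hours of galactose induction, yeast (Saccharomyces cerevisiae BJ5465) displaying a synthetic nanobody library were stained at 4 °C for 1 hour with 10% biotinylated, detergent-solubilized Sf9 membrane reagent. Streptavidin microbeads enriched the stained cells before FACS sorting into low and high (top ~1%) gates on anti-HA and streptavidin fluorescence. Each clone's polyreactivity label reflects its gate of origin.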

Row | Sequence | polyreactivity (PSR sort gate)
1 | QVQLVESGGGLVQAGGSLRLSCAASGSTFGPNTMGWYRQAPGKERELVAAITSTGSTYYADSVKGRFTISRDNGKNTVYFEMNILLPEDTAVYYCAARRYYGVYYAFYYWGQGTQVTVSS | high polyreactivity
2 | QVQLVESGGGLVQAGGSLRLSCAASGSTFGPYAMGWYRQAPGKERELVAAIRSDGGTYYADSVKGRFTISRDNAKNTVYLQMNSLKPEDTAVYYCATRPINSYYDHDSWGQGTQVTVSS | high polyreactivity
3 | QVQLVESGGGLVQAGGSLRLSCAASGSTFGPYVMGGYRQAPGKERELVAVISGGSTDYADSVKGRFTISRDNAKNTVYLQMNSLKPEDTAVYYCNAEYYFYLSPTVYLYDYWGQGTQVTVSS | high polyreactivity
4 | QVQLVESGGGLVQAGGSLRLSCAASGSTFGQYVMGWYRQAPGKERELVAAITYSGGSTYYADSVKGRFTISRDNAKNTVYLQMNSLKPEDTAVYYCAARGRRDGYSRVPRGYWGQGTQVTVSS | high polyreactivity
5 | QVQLVESGGGLVQAGGSLRLSCAASGSTFGRNAMGWYRQAPGKERELVAAISNGGSTNYADSVKGRFTISRDNAKNTVYLQMNSLNPEDTAVYYCNRRVPYSFYSRGYYYWGQGTQVTVSS | high polyreactivity
6 | QVQLVESGGGLVQAGGSLRLSCAASGSTFGRNAMGWYRQAPGKERELVAAISWSASRTYYADSVKGRFTISRDNAKNTVYLQMNSLIPDDTAVYYCAAEYDVGYFGYEYWGQGTQVTVSS | high polyreactivity
7 | QVQLVESGGGLVQAGGSLRLSCAASGSTFGRNAMGWYRQAPGKERELVAAITASGGTTYYADSVKGRFTISRDNAKNTVYLQMNSLKPEDTAVYYCARAGHFSFKDDYWGQGTQVTVSS | low polyreactivity
8 | QVQLVESGGGLVQAGGSLRLSCAASGSTFGRNAMGWYRQAPGKERELVAAITASGGTTYYADSVKGRFTISRDNAKNTVYLQMNSLKPEETAVYYCARAGHFSFKYDYWGQGTQVTVSS | low polyreactivity
9 | QVQLVESGGGLVQAGGSLRLSCAASGSTFGRNTMGWYRKAPGKERELVASITRSSTSTNYADSVKGRFTISRDNAKNTVYLQMNSLKPEDTAVYYCAARALRTDRSPVGSHEYWGQGTQVTVSS | low polyreactivity
10 | QVQLVESGGGLVQAGGSLRLSCAASGSTFGRNTMGWYRPAPGKERELVAAITAGDTTTYADSVKGRFTISRDNAKNTDYLQMKSLKREDTAVYYCAVDPVRGRDYSWMDYWGQGSQVTVSS | low polyreactivity
11 | QVQLVESGGGLVQAGGSLRLSCAASGSTFGRNVMGWYRQAPGKERELVAAISIRGGSTYYADSVKGRFTISRDNAKNTVYLQMNSLKPEDTAVYYCARDYPTDAYDYWGQGTQVTVSS | low polyreactivity
12 | QVQLVESGGGLVQAGGSLRLSCAASGSTFGRYAMGWYRQAPGKERELVAAITRSGGRTYYADSLKGRFTISRDNAKNTVYLQMNSLKPEDTAVYYCAAVGNLYYTSHWQYDYWGQGTQVTVSS | high polyreactivity
13 | QVQLVESGGGLVQAGGSLRLSCAASGSTFGRYTMGWYRQAPGKEREFVAAIRWSGGNTYYADSVKGRFTISRDNAKNTVYLQMNSLKPEDTAVYYCNRVYSTIGDYWGQGTQVTVSS | low polyreactivity
14 | QVQLVESGGGLVQAGGSLRLSCAASGSTFGRYVMGWYRQAPGKERELVAAISYSGGRTYYADSVKGRFTISRDNAKNTVYLQMNSLKPEDTAVYYCAARVRTVRNTYYSWGQGTQVTVSS | high polyreactivity
15 | QVQLVESGGGLVQAGGSLRLSCAASGSTFGSNAMGWYRQAPGKERELVAAISSIGGSTYYADSVKGRFTISRDNAKNTVYLQMNSLKTEDTAVYYCAAKYYGRYYRYLGSSFDYWGQGTQVTVSS | high polyreactivity
16 | QVQLVESGGGLVQAGGSLRLSCAASGSTFGSNAMGWYRQAPGKERELVAAITYSGGRTYYADSVKGRFTISRDNAKNTVYLQMNSLKPEDTAVYYCAATFGFFYYQYDYWGQGTQVTVSS | low polyreactivity
